Data taken from article PMC3581488.
Substitutions are numbered along the chain they refer to. Names may count otherwise.

T1: Purified bovine tubulin, Q6B856
T1 chain: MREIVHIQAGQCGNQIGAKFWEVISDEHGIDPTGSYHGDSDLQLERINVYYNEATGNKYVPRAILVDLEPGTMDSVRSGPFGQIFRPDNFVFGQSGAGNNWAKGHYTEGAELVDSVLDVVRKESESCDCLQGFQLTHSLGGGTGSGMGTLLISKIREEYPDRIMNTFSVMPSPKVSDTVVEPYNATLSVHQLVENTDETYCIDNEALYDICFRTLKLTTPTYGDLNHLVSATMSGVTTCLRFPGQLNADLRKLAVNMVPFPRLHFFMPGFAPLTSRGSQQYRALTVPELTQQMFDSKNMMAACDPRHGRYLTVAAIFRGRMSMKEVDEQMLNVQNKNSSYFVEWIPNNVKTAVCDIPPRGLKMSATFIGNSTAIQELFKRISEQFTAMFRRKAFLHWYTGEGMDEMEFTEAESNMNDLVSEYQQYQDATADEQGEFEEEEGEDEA

B1: GST fusion protein encoding the C-terminus (CT) of the angiotensin II type 1 receptor (AT1R) K307E (protein)
chain: LGEKFKKYFLQLLKYIPPKAKSHSSLSTKMSTLSYRPSDNMSSSAKKPASCFEVE
B2: GST fusion protein encoding the C-terminus (CT) of the angiotensin II type 1 receptor (AT1R) K307E; K308E; K310E; K311E (protein)
chain: B1 chain with K4E, K6E, K7E
B3: GST fusion protein encoding the C-terminus (CT) of the angiotensin II type 1 receptor (AT1R) K308E (protein)
chain: B1 chain with E3K, K4E

Columns and labels:
Assay in all cases: GST fusion protein pulldown assay, quantified immunoblot (α-tubulin)
Purified bovine tubulin = Purified bovine tubulin (UniProt Q6B856); conditions: parent: est. 100, read off a plot
[1] = target: T1, Purified bovine tubulin, Q6B856; conditions: chain shown with the change
[2] = target: Tubulin from rat brain extracts, P68370;Q3KRE8; conditions: chain shown with the change; rat brain cytosolic extracts; parent: est. 100; read off a plot
[3] = parent: est. 100, read off a plot

Molecule | percent of parent (Purified bovine tubulin) | percent of parent [1, 3] | percent of parent ([1]; purified tubulin, parent: est. 100, read off a plot) | percent of parent [2]
GST fusion protein encoding the C-terminus (CT) of the angiotensin II type 1 receptor (AT1R) K310E | 20 % of AT1R CT | – | – | –
GST fusion protein encoding the C-terminus (CT) of the angiotensin II type 1 receptor (AT1R) K311E | 52 % of AT1R CT | – | – | –
B1 | – | 83 % of AT1R CT | – | –
B2 | – | 5 % of AT1R CT | 4 % of AT1R CT | 12 % of AT1R CT
B3 | – | 100 % of AT1R CT | – | –
